Columns and labels:
[1] = system: inactivated SARS-CoV-2 virus (whole virion) (SARS-CoV-2 strain CN2); test: EIS; conditions: 5' SH, 3 x iSp18 spacer; binding buffer 50 mM HEPES pH 7.4, 100 mM NaCl, 5 mM KCl, 2 mM MgCl2, 1 mM CaCl2; room temperature in SELEX, ELONA temperature not stated
[2] = system: inactivated SARS-CoV-2 virus (whole virion) (SARS-CoV-2 strain CN2); test: ELONA; conditions: binding buffer 50 mM HEPES pH 7.4, 100 mM NaCl, 5 mM KCl, 2 mM MgCl2, 1 mM CaCl2; room temperature in SELEX, ELONA temperature not stated
[3] = system: inactivated SARS-CoV-2 virus (whole virion) (SARS-CoV-2 strain CN2); test: ELONA competition; conditions: binding buffer 50 mM HEPES pH 7.4, 100 mM NaCl, 5 mM KCl, 2 mM MgCl2, 1 mM CaCl2; room temperature in SELEX, ELONA temperature not stated

| Sequence | binding signal (% impedance decrease) [1] | Kd [2] | binding signal (% signal decrease) [3] |
| --- | --- | --- | --- |
| GCAATGGTACGGTACTTCCATGGCTGGTGCTTGAGGTGTGTGTGGGGGTAGGGCCAAAAGTGCACGCTACTTTGCTAA [thiolated aptamer 6.9] | 40 | – | – |
| GCAATGGTACGGTACTTCCCGGGGCGGGCTGTCATGCCCATCCTACCGTGACCGCAAAAGTGCACGCTACTTTGCTAA [aptamer 6.8] | – | 21 nM | – |
| GCAATGGTACGGTACTTCCATGGCTGGTGCTTGAGGTGTGTGTGGGGGTAGGGCCAAAAGTGCACGCTACTTTGCTAA [aptamer 6.9] | – | 9.6 nM | 56 |
